Laboratory results published in the supplement of paper PMC9170038.

Tested on: K4 kissing-loop RNA reporter
Assay: apparent KD of K4 kissing-loop reporter; higher = weaker reporter binding
Settings: Eterna round: R107
Method: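 RNA-MaP round R107: designed RNA switches with theophylline, tryptophan, arginine or FMN aptamers are transcribed on-chip within common flanks. They are titrated with a labelled K4 kissing-loop RNA reporter in RNA-MaP buffer (100 mM Tris pH 7.5, 80 mM KCl, 4 mM MgCl2), without ligand or with the indicated ligand. Median apparent KD per design.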

[1] = input ligand: theophylline 20 uM
[2] = input ligand: tryptophan 2.4 mM
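Further: bound reporter read as fluorescence of individual clusters on recovered sequencing chips by microscopy, with normalized cluster intensities fitted with a binding model.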

Row | Sequence | apparent KD of K4 kissing-loop reporter (input ligand: FMN 200 uM) | apparent KD of K4 kissing-loop reporter (input ligand: arginine 13.2 mM) | apparent KD of K4 kissing-loop reporter (input ligand: none) | apparent KD of K4 kissing-loop reporter [1] | apparent KD of K4 kissing-loop reporter [2]
1 | UGUCAUUGGUCGGCCGCCACUAGAAGGUCAAAGACCAUAGAGUGAUGUUCUAAGACGAAAGUCACUAGGACCGGGACCGAUGACU [TrypBS 1 #SwitchBubble #K4Middle] | 744 nM | 1080 nM | 899 nM | 946 nM | 207 nM
2 | UGUCAUUGGUCGGCCGCCACUAGGACCGGGAGUAACCUAGUGAUGUUAGUGUGCUCGGCCGCCACUAGGACCGGGACCGAUGACU [KL-SSTryp-B22 #DoubleAptamer] | 180 nM | 164 nM | 157 nM | 165 nM | 103 nM
3 | UGUCAUUGGUCGGCCGCCACUCCAUAAAGAGUGAUGUUCUAAAAGACGGAUCGAAAGAUCUGUCGGAGGACCGGGACCGAUGACU [FiskerMod 4 - Jieux - Same State - Tryptophan B] | 1190 nM | 555 nM | 1090 nM | 549 nM | 243 nM
4 | UGUCAUUGGUCGGCCGCCACUUUGUAUGGAGUGAUGUUUUGUAGAUUGUGUUGAAAGGUGUGGUGAAGGACCGGGACCGAUGACU [FiskerMod 24 - Jieux - Same State - Tryptophan B] | 1070 nM | 652 nM | 922 nM | 841 nM | 749 nM
5 | UGUGAACAAAAGUAGAGUGGACCACUAUAGCGAGGACCGGUACGGCCGCCACUCGUGCAUGAAUUCAGUGAUGUUGAAAAGAGCU [whbob_EX_Tryp_A_t12] | 258 nM | 375 nM | 330 nM | 364 nM | 185 nM
6 | UGUGCUGUGUAGUGUAAUGUUAUGCGGGAUACCAGAGUCUUUUUAUUCCCUUGGCAGCUUGAGUGAUGUUUGAUGCUGUUCUUGU [uujmullin] | 303 nM | 305 nM | 350 nM | 371 nM | 287 nM
7 | UGUGGAGAAUAUGAUACCAGCAGAGAGAGAGAGGAAGUAUAGUGAUGUUAUAUGAGAGAAUGCCCUUGGCAGCAUAAGAAGAAGG [SSTheophylB.C] | 144 nM | 119 nM | 140 nM | 216 nM | 192 nM
8 | UGUGGAGGAUAUGAUACCAGCAGUGAGAGAGAGGAAGUAUAGUGAUGUUAUAUGAGAGAAUGCCCUUGGCAGCGUGUGUAGUGGG [SSTheophylB.K] | 184 nM | 137 nM | 146 nM | 176 nM | 145 nM
9 | UGUGUACCGGGAAGGAGCGUGAAUGAUAAUGGAUAUAGUGAUGUUAUAUAUACGAACGAAUCGCAGGUAGGUCGCCCGGAUCCCU [SSArgB.X] | 808 nM | 494 nM | 639 nM | 559 nM | 576 nM
10 | UGUGUUUACCUGACUCAGUGAUGUUGAGAAGGAGCGUGCGAACGCACAGGUAGGUCGCUCAACCUAAAUUCAGGUGAGCACUAAA | 430 nM | 443 nM | 499 nM | 611 nM | 398 nM
11 | UUAGAGAUCUCAGGAUAUCAGUGAUGUUGGUUUCCAGAUCUGAGAUAGAAUUCUAUCUCAGAUCAAUGAGAAGGGAGAUCUCAUU [AK4.1 Exc FMN B] | 535 nM | 128 nM | 151 nM | 132 nM | 123 nM
12 | UUAGAUGAUUCAUCAAGAUUGAUGAGGAAACGAGGACCGGUACGGCCGCCACUCGAGUGAUGUUCGAGAACCUCAUCAAUCAAUU [AK4.4 Exc Tryptophan A] | 162 nM | 150 nM | 154 nM | 154 nM | 333 nM
13 | UUAGUCAGAUUAUUAUUAGCCUGCGAGUCUAAGGAUAUCCGAAUUCGGAGAAGGUAGUGAUGUUACUUUGGCAGGCACUGACAUU [AK9 Exc FMN A] | 807 nM | 357 nM | 431 nM | 414 nM | 351 nM
14 | UUAUAUACGAGUGAUGUUCGUUAUUUAUCAGAGGAUAUGCUUAAAUGCAGAAGGCUGUUUUUCUAUUUGAUAUUAAAUUUUAUAA [JR_Nu3_ExcFMNA_Sub027] | 81.6 nM | 89.3 nM | 69.6 nM | 81.1 nM | 58.1 nM
15 | UUAUAUAUAUUAGAUACCAGUUUAAUGGAAACAAAUUAUGUUAUGAGUGAUGUUCAUGUAAGCCCUUGGCAGCUGGUAUGGGUUU [KL-XTheo-B18] | 235 nM | 305 nM | 237 nM | 322 nM | 207 nM
16 | UUCCGGGCCGAAGGAUAUUGGAGUGAUGUUUCAAGACGUUCGUCCCAGCCCAUAGUAACUAUCGCCCAAGAAGGUCGUAUUGAAU [theeternabot_exclusion_KL_FMN_B_13] | 227 nM | 177 nM | 243 nM | 189 nM | 157 nM
17 | UUCGAUCAGUGAUGUUGAUCAAUAGUCGAAGGAGCGCUAUAGAUAGCAGGUAGGUCGCGACUACAAGGUGUUAAGACACCUCGAA [Arg A SS t9] | 505 nM | 430 nM | 525 nM | 443 nM | 431 nM
18 | UUCUUGAUGGAAACAUCGAGAAUUACUGAUACCAGUAUCGAUAGAUACCCUUGGCAGCAGAAUCAGUAAUAACGAGUGAUGUUCG [Ex Theophylline A K4 4] | 313 nM | 254 nM | 304 nM | 321 nM | 243 nM
19 | UUGGUCUUUUAAGGAUAUCAUACUCCACUGAGCGAGUGAUGUUCGCUCCUGUUACGCCUGGGACCGUGAGAAGGUAAAGUACCGU [theeternabot_sameState_KL_FMN_B_5] | 149 nM | 138 nM | 163 nM | 147 nM | 137 nM
20 | UUGUUUGGUUGAGAGGUUGGGCGAGAUGAUACCAGUAGAGAAGAGUACCCUUGGCAGCAUAGGAGAGAUAUAGUGAUGUUGUAUA [SSTheophA.R] | 487 nM | 424 nM | 420 nM | 525 nM | 402 nM
21 | UUUAACGAGUGAUGUUCGAAGAGUAAUGGUGAGGAUAUCGAUUUUUCGAGAAGGCACCUCGAAGUGAUACGAAAGUAUCGCUUCG [FMN A 5] | 171 nM | 266 nM | 266 nM | 269 nM | 181 nM
